The numbers were not newly measured in publication PMC11379947 (Nature Communications, 2024), which cites them from elsewhere.

The target of the data set is T1, ICOS (Homo sapiens, UniProt Q9Y6W8).
T1 sequence (Q9Y6W8 21-199): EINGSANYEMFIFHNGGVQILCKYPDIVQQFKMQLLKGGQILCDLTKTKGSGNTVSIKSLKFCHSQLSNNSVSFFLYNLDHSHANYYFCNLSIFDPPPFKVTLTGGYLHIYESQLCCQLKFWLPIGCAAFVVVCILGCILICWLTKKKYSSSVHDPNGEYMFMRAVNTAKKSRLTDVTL
As to conditions: read-out: KD of natural ICOS ligand; cited from earlier work.

B1: ICOSL: the natural ICOS ligand (protein, UniProt O75144 19-302, looked up)
ICOS ligand: DTQEKEVRAMVGSDVELSCACPEGSRFDLNDVYVYWQTSESKTVVTYHIPQNSSLENVDSRYRNRALMSPAGMLRGDFSLRLFNVTPQDEQKFHCLVLSQSLGFQEVLSVEVTLHVAANFSVPVVSAPHSPSQDELTFTCTSINGYPRPNVYWINKTDNSLLDQALQNDTVFLNMRGLYDVVSVLRIARTPSVNIGCCIENVLLQQNLTVGSQTGNDIGERDKITENPVSTGEKNAATWSILAVLCLLVVVAVAIGWVCRDRCLQHSYAGAWAVSPETELTGHV
As to B1, the Kd is 722 nM.
